The target of test [1] is T1, mesothelin (MsIn), murine peptide on H-2Db (mouse).
T1 peptide: GQKMNAQAI
As to the kind of experiment: cytokine release.

The target in test [2] is T1, mesothelin (MsIn), murine peptide on …. In words: multimer staining. The text has this: Flow cytometry: Mononuclear cells were stained with MsIn₄₀₆₋₄₁₄:H-2D^b-APC or -BV421 tetramer (1:100) in the presence of 1:100 Fc block (αCD16/32, Tonbo), and monoclonal antibodies diluted 1:100 in FACs Buffer (2% BSA+PBS) or (2.5% FBS+PBS+1% NaN₃) and specific to CD45 (30F-11, Biolegend), CD8a (53-6.7, Tonbo), CD44 (IM7, BD Biosciences), CD62L (MEL-14, Biolegend), CD69 (H1.2F3, BD Biosciences), CD25 (PC61, BD Biosciences), Vβ9 (MR10-2, Biolegend), CD3e (145-2C11, BD Biosciences), CD4 (GK1.5, BD Biosciences), and/or TCRβ (h57-597, eBiosciences) in the presence of live/dead stain (Tonbo Ghost dye in BV510 or APC ef780). Cells were fixed using Foxp3 transcription factor reagent (Tonbo), for 30 minutes at 4° C., washed and intracellular stained with aKi67 (B56, BD Biosciences) and/or Foxp3 (3G3, Tonbo) diluted 1:100 in Fix/Perm buffer (Tonbo) and stained overnight. The next day, cells were washed 2× with perm wash buffer and resuspended in FACs buffer or 0.4% PFA for 15 minutes at 4° C. Cells were resuspended in FACs buffer and Countbright Absolute Counting Beads (Thermo Fisher). Cells were acquired with a Fortessa 1770 flow cytometer and Facs Diva software (BD Biosciences). Data were analyzed using FlowJo software (version 10). ViSNE analysis was performed by gating on total live T cells with default settings of 1000 iterations, 30 perplexity and theta of 0.5 using Cytobank software.

B1: 7431 TCR (TCR, V domains shown)
Valpha: GDSVTQTEGPVTVSESESLIINCTYSATSIAYPNLFWYVRYPGEGLQLLLKVITAGQKGSSRGFEATYNKETTSFHLQKASVQESDSAVYYCALGPDTNAYKVIFGKGTHLHVLP
Vbeta: DTTVKQNPRYKLARVGKPVNLICSQTMNHDTMYWYQKKPNQAPKLLLFYYDKILNREADTFEKFQSSRPNNSFCSLYIGSAGLEYSAMYLCASSRGANTEVFFGKGTRLTVV
As for B1, the binding result in test [1] is on record as “recognises”.

B2: 1045 TCR (TCR, V domains shown)
Valpha: GDSVTQTEGPVTVSESESLIINCTYSATSIAYPNLFWYVRYPGEGLQLLLKVITAGQKGSSRGFEATYNKETTSFHLQKASVQESDSAVYYCALGLDYANKMIFGLGTILRVRP
Vbeta: DTTVKQNPRYKLARVGKPVNLICSQTMNHDTMYWYQKKPNQAPKLLLFYYDKILNREADTFEKFQSSRPNNSFCSLYIGSAGLEYSAMYLCASSNPQDTQYFGPGTRLLVL
Consider B2, for which the binding result in test [2] is given as “recognises”.

The values are drawn from patent US20250242023A1 (published 2025).
